Data on two proteins can be found in PMC5807052, “Robo1 Forms a Compact Dimer-of-Dimers Assembly” (Structure(London, England:1993), 2018).

Data set [1] deals with the molecule itself. As to the kind of experiment: SEC-MALS; Superdex S200 HR 10/30, 200 mM NaCl, 20 mM Tris pH 7.5; 55 ul of Robo1 ECDa at 2.5 mg/ml from peak 1 of the SEC.
Data set [2] concerns the molecule itself. As to the kind of experiment: SEC; Superdex S200, 200 mM NaCl, 20 mM Tris pH 7.5; self-association of Robo1 ECD. On the technique in general: SEC sorts molecules by how far they enter the pores of the column.
Data set [3] deals with the molecule itself. In words: negative-stain EM reconstruction; GraFix-stabilised sample (fraction 12), ammonium molybdate stain, 100 kV; 3D map with D2 symmetry, 16 Å (FSC 0.143), filtered to 20 Å.

Where “and” joins values, the source holds several entries; their conditions need not be identical. Equal entries are not always repeated.

B1: Robo1 ECDa (human Robo1 ectodomain, residues 61-853) (domain or fragment, UniProt Q9Y6N7-1 61-853, looked up)
chain: LRQEDFPPRIVEHPSDLIVSKGEPATLNCKAEGRPTPTIEWYKGGERVETDKDDPRSHRMLLPSGSLFFLRIVHGRKSRPDEGVYVCVARNYLGEAVSHNASLEVAILRDDFRQNPSDVMVAVGEPAVMECQPPRGHPEPTISWKKDGSPLDDKDERITIRGGKLMITYTRKSDAGKYVCVGTNMVGERESEVAELTVLERPSFVKRPSNLAVTVDDSAEFKCEARGDPVPTVRWRKDDGELPKSRYEIRDDHTLKIRKVTAGDMGSYTCVAENMVGKAEASATLTVQEPPHFVVKPRDQVVALGRTVTFQCEATGNPQPAIFWRREGSQNLLFSYQPPQSSSRFSVSQTGDLTITNVQRSDVGYYICQTLNVAGSIITKAYLEVTDVIADRPPPVIRQGPVNQTVAVDGTFVLSCVATGSPVPTILWRKDGVLVSTQDSRIKQLENGVLQIRYAKLGDTGRYTCIASTPSGEATWSAYIEVQEFGVPVQPPRPTDPNLIPSAPSKPEVTDVSRNTVTLSWQPNLNSGATPTSYIIEAFSHASGSSWQTVAENVKTETSAIKGLKPNAIYLFLVRAANAYGISDPSQISDPVKTQDVLPTSQGVDHKQVQRELGNAVLHLHNPTVLSSSSIEVHWTVDQQSQYIQGYKILYRPSGANHGESDWLVFEVRTPAKNSVVIPDLRKGVNYEIKARPFFNEFQGADSEIKFAKTLEEAPSAPPQGVTVSKNDGNGTAILVSWQPPPEDTQNGMVQEYKVWCLGNETRYHINKTVDGSTFSVVIPFLVPGIRYSVEVA
notes: Robo1, human, ectodomain construct ECDa, residues 61-853 of NP_002932; lacks the last beta-strand of Fn3; Cloned into a modified pTT3 vector that encodes a signal peptide and a C-terminal hexa-histidine tag; also called pTT3_Robo1_ECDa; source: HEK-293T, transient expression, secreted, purified (Ni-sepharose, SEC Superdex S200)
The term stoichiometry N denotes the number of molecules, sites or subunits per partner or assembly. Turning to B1, the “stoichiometry N” value in data set [1] is 1; in data set [2], 4 and 2.

B2: Robo1 ECDb (human Robo1 whole ectodomain, residues 61-864) (domain or fragment, UniProt Q9Y6N7-1 61-864, looked up)
chain: LRQEDFPPRIVEHPSDLIVSKGEPATLNCKAEGRPTPTIEWYKGGERVETDKDDPRSHRMLLPSGSLFFLRIVHGRKSRPDEGVYVCVARNYLGEAVSHNASLEVAILRDDFRQNPSDVMVAVGEPAVMECQPPRGHPEPTISWKKDGSPLDDKDERITIRGGKLMITYTRKSDAGKYVCVGTNMVGERESEVAELTVLERPSFVKRPSNLAVTVDDSAEFKCEARGDPVPTVRWRKDDGELPKSRYEIRDDHTLKIRKVTAGDMGSYTCVAENMVGKAEASATLTVQEPPHFVVKPRDQVVALGRTVTFQCEATGNPQPAIFWRREGSQNLLFSYQPPQSSSRFSVSQTGDLTITNVQRSDVGYYICQTLNVAGSIITKAYLEVTDVIADRPPPVIRQGPVNQTVAVDGTFVLSCVATGSPVPTILWRKDGVLVSTQDSRIKQLENGVLQIRYAKLGDTGRYTCIASTPSGEATWSAYIEVQEFGVPVQPPRPTDPNLIPSAPSKPEVTDVSRNTVTLSWQPNLNSGATPTSYIIEAFSHASGSSWQTVAENVKTETSAIKGLKPNAIYLFLVRAANAYGISDPSQISDPVKTQDVLPTSQGVDHKQVQRELGNAVLHLHNPTVLSSSSIEVHWTVDQQSQYIQGYKILYRPSGANHGESDWLVFEVRTPAKNSVVIPDLRKGVNYEIKARPFFNEFQGADSEIKFAKTLEEAPSAPPQGVTVSKNDGNGTAILVSWQPPPEDTQNGMVQEYKVWCLGNETRYHINKTVDGSTFSVVIPFLVPGIRYSVEVAASTGAGSGVKS
notes: Robo1, human, whole ectodomain construct ECDb, residues 61-864 of NP_002932; Cloned into a modified pTT3 vector that encodes a signal peptide and a C-terminal hexa-histidine tag; also called pTT3_Robo1_ECDb; source: HEK-293T, transient expression, secreted, purified (Ni-sepharose, SEC Superdex S200)
As to B2, the binding result in data set [3] is reported as “binds”.
